Data on five molecules can be found in patent US12679878B2, “CRF2 receptor agonists and their use in therapy” (SANOFI, priority 2020, dated 2026).

Test [1] addresses T1, anti-target CRF1R receptor (UniProt P34998 24-415, limits assumed).
T1 sequence (looked up): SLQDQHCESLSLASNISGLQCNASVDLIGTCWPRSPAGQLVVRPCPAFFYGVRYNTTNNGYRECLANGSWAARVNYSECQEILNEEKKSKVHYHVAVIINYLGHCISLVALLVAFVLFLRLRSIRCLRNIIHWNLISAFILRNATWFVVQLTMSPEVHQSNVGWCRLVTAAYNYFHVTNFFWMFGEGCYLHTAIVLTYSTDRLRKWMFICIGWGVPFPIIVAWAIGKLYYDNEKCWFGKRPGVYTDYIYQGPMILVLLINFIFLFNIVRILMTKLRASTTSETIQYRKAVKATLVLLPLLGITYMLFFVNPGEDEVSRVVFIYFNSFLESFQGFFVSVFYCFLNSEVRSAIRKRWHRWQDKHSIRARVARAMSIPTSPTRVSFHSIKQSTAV
Nature of the test: cell-based or functional assay.

The next test deals with rat CRF2R α receptor (rat, UniProt P47866 20-411). Nature of the test: cell-based or functional assay.

Starred links: 1 amine or outer side, 2 acyl side, 3 side chain; linkers in the order of their positions; H or OH if unused. Non-standard residues stand in square brackets, D forms with d. Groups on a side chain read outwards from the residue. No end group written: not given here. *: point of attachment. C20 diacid = O=C(O)CCCCCCCCCCCCCCCCCCC(=O)*; C18 diacid = O=C(O)CCCCCCCCCCCCCCCCC(=O)*; γGlu = O=C(O)[C@H](CCC(=O)[*:2])N[*:1]; AEEA = NCCOCCOCC(=O)O; Aib = CC(C)(N)C(=O)O

Chain of rat CRF2R α receptor (P47866 20-411): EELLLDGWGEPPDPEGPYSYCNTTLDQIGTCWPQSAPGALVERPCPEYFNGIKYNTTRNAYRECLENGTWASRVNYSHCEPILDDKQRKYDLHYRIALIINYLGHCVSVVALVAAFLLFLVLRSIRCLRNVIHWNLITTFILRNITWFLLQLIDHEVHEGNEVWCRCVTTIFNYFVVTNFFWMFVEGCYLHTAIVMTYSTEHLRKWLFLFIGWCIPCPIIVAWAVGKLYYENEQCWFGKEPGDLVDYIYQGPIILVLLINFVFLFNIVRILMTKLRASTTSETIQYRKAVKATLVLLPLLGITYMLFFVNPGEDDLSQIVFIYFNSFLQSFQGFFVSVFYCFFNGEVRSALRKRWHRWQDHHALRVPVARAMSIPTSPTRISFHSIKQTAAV

B1: peptide of SEQ ID NO: 86 (peptide)
peptide: IVLSLDVPIKLK([AEEA-AEEA-γGlu-C18 diacid])QILLKQERQKKQREQAKTNKQILAQV-NH2
modifications: N-terminus assumed
SMILES: CC[C@H](C)[C@H](N)C(=O)N[C@H](C(=O)N[C@@H](CC(C)C)C(=O)N[C@@H](CO)C(=O)N[C@@H](CC(C)C)C(=O)N[C@@H](CC(=O)O)C(=O)N[C@H](C(=O)N1CCC[C@H]1C(=O)N[C@H](C(=O)N[C@@H](CCCCN)C(=O)N[C@@H](CC(C)C)C(=O)N[C@@H](CCCCNC(=O)COCCOCCNC(=O)COCCOCCNC(=O)CC[C@H](NC(=O)CCCCCCCCCCCCCCCCC(=O)O)C(=O)O)C(=O)N[C@@H](CCC(N)=O)C(=O)N[C@H](C(=O)N[C@@H](CC(C)C)C(=O)N[C@@H](CC(C)C)C(=O)N[C@@H](CCCCN)C(=O)N[C@@H](CCC(N)=O)C(=O)N[C@@H](CCC(=O)O)C(=O)N[C@@H](CCCNC(=N)N)C(=O)N[C@@H](CCC(N)=O)C(=O)N[C@@H](CCCCN)C(=O)N[C@@H](CCCCN)C(=O)N[C@@H](CCC(N)=O)C(=O)N[C@@H](CCCNC(=N)N)C(=O)N[C@@H](CCC(=O)O)C(=O)N[C@@H](CCC(N)=O)C(=O)N[C@@H](C)C(=O)N[C@@H](CCCCN)C(=O)N[C@H](C(=O)N[C@@H](CC(N)=O)C(=O)N[C@@H](CCCCN)C(=O)N[C@@H](CCC(N)=O)C(=O)N[C@H](C(=O)N[C@@H](CC(C)C)C(=O)N[C@@H](C)C(=O)N[C@@H](CCC(N)=O)C(=O)N[C@H](C(N)=O)C(C)C)[C@@H](C)CC)[C@@H](C)O)[C@@H](C)CC)[C@@H](C)CC)C(C)C)C(C)C
Turning to B1, in test [1], the “EC50[nM] 0% HSA (cAMP, CRF1R-overexpression CHO cells)” value (“EC50[nM] 0% HSA” for short) is over 1000 nM and the “Emax (%) (cAMP, CRF1R-overexpression CHO cells)” value (from here on “Emax (%)”) is 15.9%. For the same molecule, the “EC50 [nM], 0% HSA (cAMP, A7R5 cells)” value in the test with rat CRF2R α receptor came out at 0.69 nM.

B2: peptide of SEQ ID NO: 85 (peptide)
peptide: IVLSLDVPIKLK([AEEA-AEEA-γGlu-C18 diacid])QILLKQERQKKQREQAETNKQILAQV-NH2
modifications: N-terminus assumed
SMILES: CC[C@H](C)[C@H](N)C(=O)N[C@H](C(=O)N[C@@H](CC(C)C)C(=O)N[C@@H](CO)C(=O)N[C@@H](CC(C)C)C(=O)N[C@@H](CC(=O)O)C(=O)N[C@H](C(=O)N1CCC[C@H]1C(=O)N[C@H](C(=O)N[C@@H](CCCCN)C(=O)N[C@@H](CC(C)C)C(=O)N[C@@H](CCCCNC(=O)COCCOCCNC(=O)COCCOCCNC(=O)CC[C@H](NC(=O)CCCCCCCCCCCCCCCCC(=O)O)C(=O)O)C(=O)N[C@@H](CCC(N)=O)C(=O)N[C@H](C(=O)N[C@@H](CC(C)C)C(=O)N[C@@H](CC(C)C)C(=O)N[C@@H](CCCCN)C(=O)N[C@@H](CCC(N)=O)C(=O)N[C@@H](CCC(=O)O)C(=O)N[C@@H](CCCNC(=N)N)C(=O)N[C@@H](CCC(N)=O)C(=O)N[C@@H](CCCCN)C(=O)N[C@@H](CCCCN)C(=O)N[C@@H](CCC(N)=O)C(=O)N[C@@H](CCCNC(=N)N)C(=O)N[C@@H](CCC(=O)O)C(=O)N[C@@H](CCC(N)=O)C(=O)N[C@@H](C)C(=O)N[C@@H](CCC(=O)O)C(=O)N[C@H](C(=O)N[C@@H](CC(N)=O)C(=O)N[C@@H](CCCCN)C(=O)N[C@@H](CCC(N)=O)C(=O)N[C@H](C(=O)N[C@@H](CC(C)C)C(=O)N[C@@H](C)C(=O)N[C@@H](CCC(N)=O)C(=O)N[C@H](C(N)=O)C(C)C)[C@@H](C)CC)[C@@H](C)O)[C@@H](C)CC)[C@@H](C)CC)C(C)C)C(C)C
For B2, in test [1], the “EC50[nM] 0% HSA” value is over 1000 nM and the “Emax (%)” value worked out at 0.14%. For the same molecule, the “EC50 [nM], 0% HSA (cAMP, A7R5 cells)” value with rat CRF2R α receptor amounted to 0.73 nM.

B3: peptide of SEQ ID NO: 87 (peptide)
peptide: IVLSLDVPIKLK([AEEA-AEEA-γGlu-C18 diacid])QILLKQERQKKQREKAKTNKQILAQV-NH2
modifications: N-terminus assumed
SMILES: CC[C@H](C)[C@H](N)C(=O)N[C@H](C(=O)N[C@@H](CC(C)C)C(=O)N[C@@H](CO)C(=O)N[C@@H](CC(C)C)C(=O)N[C@@H](CC(=O)O)C(=O)N[C@H](C(=O)N1CCC[C@H]1C(=O)N[C@H](C(=O)N[C@@H](CCCCN)C(=O)N[C@@H](CC(C)C)C(=O)N[C@@H](CCCCNC(=O)COCCOCCNC(=O)COCCOCCNC(=O)CC[C@H](NC(=O)CCCCCCCCCCCCCCCCC(=O)O)C(=O)O)C(=O)N[C@@H](CCC(N)=O)C(=O)N[C@H](C(=O)N[C@@H](CC(C)C)C(=O)N[C@@H](CC(C)C)C(=O)N[C@@H](CCCCN)C(=O)N[C@@H](CCC(N)=O)C(=O)N[C@@H](CCC(=O)O)C(=O)N[C@@H](CCCNC(=N)N)C(=O)N[C@@H](CCC(N)=O)C(=O)N[C@@H](CCCCN)C(=O)N[C@@H](CCCCN)C(=O)N[C@@H](CCC(N)=O)C(=O)N[C@@H](CCCNC(=N)N)C(=O)N[C@@H](CCC(=O)O)C(=O)N[C@@H](CCCCN)C(=O)N[C@@H](C)C(=O)N[C@@H](CCCCN)C(=O)N[C@H](C(=O)N[C@@H](CC(N)=O)C(=O)N[C@@H](CCCCN)C(=O)N[C@@H](CCC(N)=O)C(=O)N[C@H](C(=O)N[C@@H](CC(C)C)C(=O)N[C@@H](C)C(=O)N[C@@H](CCC(N)=O)C(=O)N[C@H](C(N)=O)C(C)C)[C@@H](C)CC)[C@@H](C)O)[C@@H](C)CC)[C@@H](C)CC)C(C)C)C(C)C
Consider B3, for which, in test [1], the “EC50[nM] 0% HSA” value is over 1000 nM and the “Emax (%)” value is -0.2%. The “EC50 [nM], 0% HSA (cAMP, A7R5 cells)” value with rat CRF2R α receptor was found to be 1.49 nM.

B4: peptide of SEQ ID NO: 83 (peptide)
peptide: IVLSLD[dV]PIGLK([AEEA-AEEA-γGlu-C18 diacid])QILLKQERQKK[Aib]REQAETNKRILERV-NH2
modifications: N-terminus assumed
SMILES: CC[C@H](C)[C@H](N)C(=O)N[C@H](C(=O)N[C@@H](CC(C)C)C(=O)N[C@@H](CO)C(=O)N[C@@H](CC(C)C)C(=O)N[C@@H](CC(=O)O)C(=O)N[C@@H](C(=O)N1CCC[C@H]1C(=O)N[C@H](C(=O)NCC(=O)N[C@@H](CC(C)C)C(=O)N[C@@H](CCCCNC(=O)COCCOCCNC(=O)COCCOCCNC(=O)CC[C@H](NC(=O)CCCCCCCCCCCCCCCCC(=O)O)C(=O)O)C(=O)N[C@@H](CCC(N)=O)C(=O)N[C@H](C(=O)N[C@@H](CC(C)C)C(=O)N[C@@H](CC(C)C)C(=O)N[C@@H](CCCCN)C(=O)N[C@@H](CCC(N)=O)C(=O)N[C@@H](CCC(=O)O)C(=O)N[C@@H](CCCNC(=N)N)C(=O)N[C@@H](CCC(N)=O)C(=O)N[C@@H](CCCCN)C(=O)N[C@@H](CCCCN)C(=O)NC(C)(C)C(=O)N[C@@H](CCCNC(=N)N)C(=O)N[C@@H](CCC(=O)O)C(=O)N[C@@H](CCC(N)=O)C(=O)N[C@@H](C)C(=O)N[C@@H](CCC(=O)O)C(=O)N[C@H](C(=O)N[C@@H](CC(N)=O)C(=O)N[C@@H](CCCCN)C(=O)N[C@@H](CCCNC(=N)N)C(=O)N[C@H](C(=O)N[C@@H](CC(C)C)C(=O)N[C@@H](CCC(=O)O)C(=O)N[C@@H](CCCNC(=N)N)C(=O)N[C@H](C(N)=O)C(C)C)[C@@H](C)CC)[C@@H](C)O)[C@@H](C)CC)[C@@H](C)CC)C(C)C)C(C)C
On to B4, for which, in test [1], the “EC50[nM] 0% HSA” value was over 1000 nM and the “Emax (%)” value is 7.51%. Besides, in the test with rat CRF2R α receptor, the “EC50 [nM], 0% HSA (cAMP, A7R5 cells)” value was 1.83 nM.

B5: peptide of SEQ ID NO: 80 (peptide)
peptide: IVLSLDVPTKLK([AEEA-AEEA-γGlu-C20 diacid])QILLEQERQKKQREQAETN[Aib]QILAQV-NH2
modifications: N-terminus assumed
SMILES: CC[C@H](C)[C@H](N)C(=O)N[C@H](C(=O)N[C@@H](CC(C)C)C(=O)N[C@@H](CO)C(=O)N[C@@H](CC(C)C)C(=O)N[C@@H](CC(=O)O)C(=O)N[C@H](C(=O)N1CCC[C@H]1C(=O)N[C@H](C(=O)N[C@@H](CCCCN)C(=O)N[C@@H](CC(C)C)C(=O)N[C@@H](CCCCNC(=O)COCCOCCNC(=O)COCCOCCNC(=O)CC[C@H](NC(=O)CCCCCCCCCCCCCCCCCCC(=O)O)C(=O)O)C(=O)N[C@@H](CCC(N)=O)C(=O)N[C@H](C(=O)N[C@@H](CC(C)C)C(=O)N[C@@H](CC(C)C)C(=O)N[C@@H](CCC(=O)O)C(=O)N[C@@H](CCC(N)=O)C(=O)N[C@@H](CCC(=O)O)C(=O)N[C@@H](CCCNC(=N)N)C(=O)N[C@@H](CCC(N)=O)C(=O)N[C@@H](CCCCN)C(=O)N[C@@H](CCCCN)C(=O)N[C@@H](CCC(N)=O)C(=O)N[C@@H](CCCNC(=N)N)C(=O)N[C@@H](CCC(=O)O)C(=O)N[C@@H](CCC(N)=O)C(=O)N[C@@H](C)C(=O)N[C@@H](CCC(=O)O)C(=O)N[C@H](C(=O)N[C@@H](CC(N)=O)C(=O)NC(C)(C)C(=O)N[C@@H](CCC(N)=O)C(=O)N[C@H](C(=O)N[C@@H](CC(C)C)C(=O)N[C@@H](C)C(=O)N[C@@H](CCC(N)=O)C(=O)N[C@H](C(N)=O)C(C)C)[C@@H](C)CC)[C@@H](C)O)[C@@H](C)CC)[C@@H](C)O)C(C)C)C(C)C
B5: in test [1], the “EC50[nM] 0% HSA” value was over 1000 nM and the “Emax (%)” value is 12.7%. Also, in the test with rat CRF2R α receptor, the “EC50 [nM], 0% HSA (cAMP, A7R5 cells)” value turned out to be 5.2 nM.
